From publication PMC11384727

Target: PKM2 (pcDNA3.1(+)-PKM2, transfected) (human) (UniProt P14618)
Experiment: cross-linking

Sequence of PKM2 (pcDNA3.1(+)-PKM2, transfected), P14618 1-531 (enzyme; other documents disagree on this pair) (P14618 whole entry): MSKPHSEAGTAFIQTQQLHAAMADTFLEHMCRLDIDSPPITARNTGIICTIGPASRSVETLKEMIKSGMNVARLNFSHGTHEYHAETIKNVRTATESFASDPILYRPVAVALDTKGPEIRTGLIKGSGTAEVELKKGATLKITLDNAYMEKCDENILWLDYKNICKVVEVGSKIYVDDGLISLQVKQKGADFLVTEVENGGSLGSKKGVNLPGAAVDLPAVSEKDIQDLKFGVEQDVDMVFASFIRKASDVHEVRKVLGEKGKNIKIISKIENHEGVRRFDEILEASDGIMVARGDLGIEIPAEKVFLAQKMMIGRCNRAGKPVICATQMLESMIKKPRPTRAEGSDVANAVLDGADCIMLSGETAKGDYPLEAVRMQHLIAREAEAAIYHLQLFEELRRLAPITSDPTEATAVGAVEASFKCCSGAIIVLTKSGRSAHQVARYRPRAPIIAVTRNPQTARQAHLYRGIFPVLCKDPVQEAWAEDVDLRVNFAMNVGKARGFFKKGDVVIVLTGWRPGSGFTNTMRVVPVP

## PKM2 (pcDNA3.1(+)-PKM2, transfected), P14618 1-531 (enzyme; other documents disagree on this pair)
  stoichiometry N: 2
